Test results as given in the nanobody polyreactivity screen of Harvey et al. (2022).

Assay: yeast display, Sf9 membrane polyspecificity reagent, FACS + sequencing; frameworks hold sequencing errors
Procedure, shortened: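 After 36–48 hours of galactose induction, yeast (Saccharomyces cerevisiae BJ5465) displaying a synthetic nanobody library were stained at 4 °C for 1 hour with 10% biotinylated, detergent-solubilized Sf9 membrane reagent. Streptavidin microbeads enriched the stained cells before FACS sorting into low and high (top ~1%) gates on anti-HA and streptavidin fluorescence. Each clone's polyreactivity label reflects its gate of origin.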

| Sequence | polyreactivity (PSR sort gate) |
| --- | --- |
| QVQLVESGGGLVHEGGSLRLSCAASGRLFKSYAMGWYRQAPVKERELVAAISRSGGRTYYADSVKGRFTISRDNAKNTVYLQMNSLKPEDTAVYYCAATTFVAPYWGQGTQVTVSS | low polyreactivity |
| QVQLVESGGGLVKAGCSLRLSCAASGFTFGRYAMGWYRQAPGKERELVAAISRTGGRTYYADSVKGRFTISRDNAKNTVYLQMNSLKPEDTAVYYCAADKGGTYFNGDSWGQGTQVTVSS | high polyreactivity |
| QVQLVESGGGLVKAGGILRLSCAASGSIFGRYVMGWYRPAPGKEREVVAAINRSGGRTYYADSVKGRFSISRDNAKYTVYLQMNSLKPEDTAVYYCATYTGSSASKEVPYDYWGQGTQVTVSS | high polyreactivity |
| QVQLVESGGGLVKAGGSHRLSLASYGTFRYYAMGWYRQAPGKERELDAGISRSGGSTYYEDSVKGRFTISRDNAKNTVYLQMNSQNPEDTEVYDCAAGNYYYWYKTKYYHYDYWGQGTQVTVSS | high polyreactivity |
| QVQLVESGGGLVKAGGSLGLSCAASGRTLRYYAMGWYRQAPRKERELVASISIGGSTYYADSVKGRFTISRDNAKNTVYLQMNSLKPEDTAVYYCATDYSNSGYGYWGQCTQVTVSS | low polyreactivity |
| QVQLVESGGGLVKAGGSLRFSCAASVITFVWYAMGWYRQAPGKERDLVASIDSSVSTNYADSVKGRFTISRDNEKNTVYFQMNSLKPEDTAVYYCAAYFFFGQVGGMEYWGQGTQVTVSS | low polyreactivity |
| QVQLVESGGGLVKAGGSLRLICAASGFTFRAYAMGWYRQAPGTERELVAAINRRGGRTYYADSVKGRFTISRDNAKNTVYLQMNSLKPEDTAVYYCAAVKSGPSKGVGPPATAYDYWGQGTQVTVSS | high polyreactivity |
| QVQLVESGGGLVKAGGSLRLSCAASAWYAMGWYRQAPGKEREFVAAITFSGSSTYYADSVKGRFTISRDNAKNTVYLQMNSLKPEVTAVYYCNADWWEWGQGTQVTVSS | low polyreactivity |
| QVQLVESGGGLVKAGGSLRLSCAASGFICVDYDRGGSRQAPGQERELVAAINWSGGSTDYADSVKGRFTISRDNAKNTVYLQMNSLKPEDTAVYYCGAEGQDCRFYWGLGTQVTVSS | low polyreactivity |
| QVQLVESGGGLVKAGGSLRLSCAASGFTFLNNTMGWYRQAPGKERELVAGITSSGDRTYYADSVKGRFTISRDNAKNTVYLQMNSLKPEDTAVYYCNADSSYPPGYDYWGQGTQVTVSS | low polyreactivity |
| QVQLVESGGGLVKAGGSLRLSCAASGFTFTRYAMGWYRQAPGKDRELVAAISSGSRSYYADSVKGRFTISRDNANNTVYLQMNSLKPEDTAVYNCASPDYTYYGHYDSWGQGTQVTVSS | high polyreactivity |
| QVQLVESGGGLVKAGGSLRLSCAASGITFHDYPMGWYRQAPGKERELVAAISSGGSTNYADSVKGRFTISRDNEKNTVYLQLNSLKPEDTAVYYCAAKYTDIVARLSLYYYWGQGTQVTVSS | low polyreactivity |
| QVQLVESGGGLVKAGGSLRLSCAASGLIFKLNAMGWYRQSPGKERELVAAIRASTGSTYYADSVKGRFTISRDNAKNTVYLQMNSLKPEDTAVYYCAVSLRWYFFLMDYWGQGTQVTVSS | high polyreactivity |
| QVQLVESGGGLVKAGGSLRLSCAASGNIFTSNAMGWYRQAPGKERELVAAITSGGSTYYADSVKGRFTISRDNAKNTVYLQMNSLKPEDTAVYYCATLPRPHLRPYYYWGQGTQVTVSS | high polyreactivity |
| QVQLVESGGGLVKAGGSLRLSCAASGRIFKYNAMGWYRQAPGKERELVAVITSGGSTYYADSVKGRFTISRDNAKNTVYLQMNSLKPEDTAVYYWGQGTQVTVSS | low polyreactivity |
| QVQLVESGGGLVKAGGSLRLSCAASGRNFSQNVMGWYRQAPGKERELVADISRGGSTNYADSVKGRFTISRDNAKNSVFLQMNSLKPEDTAVYYCAARLFWYYYHPYYYWGQGTQVTVSS | high polyreactivity |
| QVQLVESGGGLVKAGGSLRLSCAASGRTFGNYAMGWYRQAPGKERELVASMNTGGSTSYADSVKGRFTISRDNAKNTVYLQMNSLKPEDTAVYYCARSFFWYRLHDYWGQGTQVTVSS | low polyreactivity |
| QVQLVESGGGLVKAGGSLRLSCAASGRTFLRNAMGWYRQAPGKERELVATITRGGSTYYADSVKGRFTISRDNAKYTCYLEIISLIPEDTAVYYCAKDITGGFRRPDYGYLGQGTQVTVSS | low polyreactivity |
| QVQLVESGGGLVKAGGSLRLSCAASGRTFQIYAMGWYRQAPGKESELVAAISRTGASTYYADSVKGRFTISRDKAKNTLFLQLNSLKPEDTAVYYCAANGHCRVYFGGCHWGQGTQVTVSS | high polyreactivity |
| QVQLVESGGGLVKAGGSLRLSCAASGRTFRFYAMGWYRQAPGKEREFVAAISRSVGSTYYADSVKGRFTISRDNAKNTVYLQMNSLKPEDTAVYYCNADYRSRYVEYDYWGQGTQVTVSS | high polyreactivity |
| QVQLVESGGGLVKAGGSLRLSCAASGRTLRSYDMGWYRQAPGKEREVVAAITRTGGDTYYADSVKGRFTISRDNAKNTVYLQMNRLKPDDTAVYYCAAQRYRGYDYWGQGTQVTVSS | high polyreactivity |
| QVQLVESGGGLVKAGGSLRLSCAASGSIFYSYAMGWYRQAPGKERELVAAITDSGDSTYYADSVKGRFTISRDYAKNTVYLQMNSLKPEDTAVYYCAAGFYPYYYWGLGTQVTVSS | low polyreactivity |

| Sequence | polyreactivity (PSR sort gate) |
| --- | --- |
| QVQLVESGGGLVKAGGSLRLSCAASGSTFAKYAMGWYRQAPGKERELDASIRLSGGSTYYADSVKGRFTISRDNAKNNVYLQMNSLKPEDTAVYYCNKQFATFYYGFDYYYWGQGTQVTVSS | low polyreactivity |
| QVQLVESGGGLVKAGGSLRLSCAASGSTFVGYAMGWYRQAPGKERELVADITWSGTNTYYADSVKGRFTISRDNAKNTVYLQMNSLKPEDTAVYYCAADIARSVRFYYWGQGTQVTVSS | low polyreactivity |
| QVQLVESGGGLVKAGGSLRLSCAASGSTNDRYAMGLYRQAPGKEREFVAAITKRGGSTYYADSVKGRFTISRDNAKITVYLQMNSLKPEDTAVYYCGARYGRGSAYTEYEYWGQGTQVTVSS | high polyreactivity |
| QVQLVESGGGLVKAGGSLRLSCADSGRTFYINAMGWYRQAPGKERELVAAISNYGSSTYYADTVKGRFTISRDNAKYTVYLLMISLKPVDSAVYYCAASYGYGGDYDYWGQGTQGTVSS | high polyreactivity |
| QVQLVESGGGLVKAGGSLRLSCGASGSIIVRYAMGWYRQAPGKERELVASISKRGGSTYYADSVKGRFTISRDNAKNTVYLQMNSLKPEDTEVYYCAAVCYYLVKFDYWGLGTQVTVSS | high polyreactivity |
| QVQLVESGGGLVKAGGSLRLSSAATGSTFWEYVMGWYRQPPGKERELVAAITTNDDSTYYADSVKGRFTISRDNAKKTVYLQMNSLKPEDTAVYYCNADQITGQFDYWGQGTQVTVSS | low polyreactivity |
| QVQLVESGGGLVKAGVSLRLSCAASGSIFVGYAMGWYRQAPGKERELVAAIRSGGSTKYADSVKGRFTISRDNAKNTVYLQMNSLKPEDTAVYYCNVEVHPYYWVDNFHRYPVLHNYWGQGTQVTVSS | low polyreactivity |
| QVQLVESGGGLVKAGVSLRLSSDASGRTFALYAMGWYRQAPGKERELVASIRGGGGTNYADSVKGRFTISRDNAKNTVYLQMNSLKPEDTAVYYCAARGYGYRGYYYWGQGTQVTVSS | high polyreactivity |
| QVQLVESGGGLVLAGGRLRLSCAASGRNFYGYAMGWYRQAPGKERELVAAISYGGGSTYYADSVKGRFTISRDNAKKTVYLQMNSLKPEDTAVYYCNDFSAYMGQYGYWGQGTQVTVSS | high polyreactivity |
| QVQLVESGGGLVLAGGRLRLSCAASGRTFFDYTMGWYSQAPGKEREFVARISSRTGRTYYADSVKGRFTISRDNEKNTDDLQMNSLKPDDTAVYYCNAVSQYSAFDYWGQGTQVTVSS | high polyreactivity |
| QVQLVESGGGLVLAGGRLRLSCADYRSIFAGYAMGWYRQAPGKERELVAAISSSGGRTYYADSVKGRFTISRDNAKNTVYLQMNSLKPEDTAVYYCAVSTYEEEYWGQGTQVTVSS | high polyreactivity |
| QVQLVESGGGLVLAGGSLLLSCAAAGSTFSQNAMGWYRQAPGKERELVAAITSGGITYYADSVKGRFTISRDNAKNSVYLQMNSLKPEDTAVYYCNADPIVSPYRLWTVTYYYWGQGTQVTVSS | low polyreactivity |
| QVQLVESGGGLVLAGGSLRLRCAASGSNFYVNAMGWYRQAPWKEMELVAAISRRGGSTYYADSVKGRFTISRDNAKNTVYLQMNSLKPEDTAVYYCNKAMRGQAPSGPEYDYWGQGTQVTVSS | high polyreactivity |
| QVQLVESGGGLVLAGGSLRLSCAASGFTFLDNAMGWYRQAPGKERELVAAISGIGGSTSYADSVKGRFTISRDNAKNTVYLQMNSLKPEDTAVYYCATRLYKWSFTPKFEMDHWGQGTQVTVSS | low polyreactivity |
| QVQLVESGGGLVLAGGSLRLSCAASGITFKWYAMGWYRQAPGKERELVAAITSGGGTNYADSVKGRFTISRDNAKNTVYLQMNSLKPEDTAVYYCAARFYQLPWRRYDYWGQGTQVTVSS | high polyreactivity |
| QVQLVESGGGLVLAGGSLRLSCAASGNTFRYYAMGWYRQAPGKERELVADITIGGSTYYADSVKGRFTISRDNAKNTVYLQMNSLKPEDTAVYYCATDPDWGYYDAPYGYWGQGTQVTVSS | low polyreactivity |
| QVQLVESGGGLVLAGGSLRLSCAASGRIFTSARGWYRQAPGKERELVAAISSSGGRTYYADSVKGRFTISRDNAKNTVYLQMNSLKPEDTAVYYCNTRPGSVFRAGGDYWGQGTQVTVSS | high polyreactivity |
| QVQLVESGGGLVLAGGSLRLSCAASGSTFFTNVMGWNRQAPGKERELVASITSGGSTNYADSVKGRFTITRDNAQNTVYLQMNSLKPEDTAVYYCAAVTRTITIYELDSWGQGTQVTVSS | low polyreactivity |
| QVQLVESGGGLVLAGGSLSLTCAASGRTCWYYTMGWYRHAPGKARELVAAISSGGRTNYADSVKGRFTISRDNATNTVFLQMNSLKPEDTAVYYCATSRYYKYVERDYWGQGTQVTVSS | high polyreactivity |
| QVQLVESGGGLVLAGRSLRLICAASGSIFVYNAMGWYRQAPGKERELVAAISWSGGRTYYADSVKGRFTISRDNAKNTVYLQMNSLKPEDTAVYYCAALYTLRGYYYGTEYDYWGQGTQVTVSS | high polyreactivity |
| QVQLVESGGGLVPAGGSLLLSCAASGRTIYSYGMGWYRQAPGKERELVASISSSTGSTYYADSVKGRFTISRDNAKNTVYLQMNSLKPEDTAVYYCAKRYSWTRRYDYWGQGTQVTVSS | high polyreactivity |
